# From paper PMC4017264 (Molecular Cell, 2014)
# Where “and” joins values, the source holds several entries; their conditions need not be identical. Equal values may be shown once. No end group written: not given here. *: point of attachment. FITC = O=C1OC2(c3ccc(O)cc3Oc3cc(O)ccc32)c2ccc(NC(=S)*)cc21; Ahx = NCCCCCC(=O)O
# T1: UBXD1 PUB domain (aa 150–264) (UniProt Q9BZV1 150-264)
# T1 construct: UBXD1, PUB domain, residues 150-264; also called minimal UBXD1 PUB domain
# T1 sequence (looked up): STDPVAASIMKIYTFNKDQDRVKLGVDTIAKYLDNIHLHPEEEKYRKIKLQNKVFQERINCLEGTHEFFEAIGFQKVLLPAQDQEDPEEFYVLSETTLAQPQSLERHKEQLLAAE
# T2: HOIP PUB domain K99R (UniProt Q96EP0 1-184, K99R)
# T2 construct: HOIP PUB domain with K99R
# T2 sequence (looked up): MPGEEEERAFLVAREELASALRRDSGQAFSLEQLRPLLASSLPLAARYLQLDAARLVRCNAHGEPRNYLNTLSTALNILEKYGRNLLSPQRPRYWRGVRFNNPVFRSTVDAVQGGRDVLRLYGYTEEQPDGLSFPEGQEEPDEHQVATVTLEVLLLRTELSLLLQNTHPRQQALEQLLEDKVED
# T3: PNGase PUB domain (aa 11–109) (UniProt Q96IV0 11-109)
# T3 construct: PNGase (peptide:N-glycanase), PUB domain, residues 11-109
# T3 sequence (looked up): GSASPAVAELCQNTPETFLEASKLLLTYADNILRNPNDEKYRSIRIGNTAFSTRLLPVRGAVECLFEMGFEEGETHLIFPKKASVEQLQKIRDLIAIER
# T4: HOIP PUB domain N101R (UniProt Q96EP0 1-184, N101R)
# T4 construct: HOIP PUB domain with N101R
# T4 sequence (looked up): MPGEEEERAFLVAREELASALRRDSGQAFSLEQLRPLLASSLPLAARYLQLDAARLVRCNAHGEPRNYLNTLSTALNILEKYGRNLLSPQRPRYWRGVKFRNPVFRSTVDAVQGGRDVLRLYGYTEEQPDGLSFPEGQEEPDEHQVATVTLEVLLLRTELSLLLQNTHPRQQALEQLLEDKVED
# T5: HOIP extended PUB domain (aa 1–184) (UniProt Q96EP0 1-184)
# T5 construct: 15N- or 13C,15N-labelled for NMR; Construct details are in the Supplemental Experimental Procedures; also called HOIP PUB domain
# T5 sequence (looked up): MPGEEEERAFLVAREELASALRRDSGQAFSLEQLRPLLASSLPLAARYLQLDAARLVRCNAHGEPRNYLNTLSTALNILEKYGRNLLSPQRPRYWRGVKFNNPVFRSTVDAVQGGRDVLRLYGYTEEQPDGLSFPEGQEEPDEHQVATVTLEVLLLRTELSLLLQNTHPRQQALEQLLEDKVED
# T6: HOIP PUB domain (aa 1–184) N85A (UniProt Q96EP0 1-184, N85A)
# T6 sequence (looked up): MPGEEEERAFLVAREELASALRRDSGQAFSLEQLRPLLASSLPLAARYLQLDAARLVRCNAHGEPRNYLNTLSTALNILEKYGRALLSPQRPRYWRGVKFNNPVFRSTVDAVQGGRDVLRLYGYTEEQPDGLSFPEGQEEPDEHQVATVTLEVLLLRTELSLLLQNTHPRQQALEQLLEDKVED
# T7: PNGase PUB domain R55A (UniProt Q96IV0 11-109, Arg55 was mutated to Ala)
# T7 construct: PNGase PUB domain with Arg55 mutated to Ala; also called PNGase mutant; Arg55 mutated to Ala
# T7 sequence (looked up): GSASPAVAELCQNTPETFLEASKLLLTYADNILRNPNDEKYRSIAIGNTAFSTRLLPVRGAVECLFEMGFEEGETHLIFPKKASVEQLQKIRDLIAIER
# T8: HOIP PUB domain (aa 1–184) V104A (UniProt Q96EP0 1-184, V104A)
# T8 sequence (looked up): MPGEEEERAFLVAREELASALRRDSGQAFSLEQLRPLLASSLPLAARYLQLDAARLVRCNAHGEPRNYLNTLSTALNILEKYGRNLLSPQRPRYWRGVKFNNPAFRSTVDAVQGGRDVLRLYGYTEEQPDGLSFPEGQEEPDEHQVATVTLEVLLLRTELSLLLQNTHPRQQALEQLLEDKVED
# T9: HOIP PUB domain (aa 1–184) Y82F (UniProt Q96EP0 1-184, Y82F)
# T9 sequence (looked up): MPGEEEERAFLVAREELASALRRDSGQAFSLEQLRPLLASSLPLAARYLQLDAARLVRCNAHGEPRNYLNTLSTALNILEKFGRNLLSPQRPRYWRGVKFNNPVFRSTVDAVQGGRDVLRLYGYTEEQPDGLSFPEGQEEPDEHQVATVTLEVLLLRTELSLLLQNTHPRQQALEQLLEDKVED
# Tests used:
# [1] = biological target: T1, UBXD1 PUB domain (aa 150–264); assay: fluorescence polarisation; serially diluted PUB domains and HOIP variants mixed with an equal volume of 100 nM FITC-Ahx-labeled peptide; one-site binding model; triplicate; details: both partners purified
# HOIP PUB domain K99R = biological target: T2, HOIP PUB domain K99R; assay: as above; details: both partners purified
# [2] = biological target: T3, PNGase PUB domain (aa 11–109); assay: as above; details: both partners purified
# HOIP PUB domain N101R = biological target: T4, HOIP PUB domain N101R; assay: as above; details: both partners purified
# [3] = biological target: T5, HOIP extended PUB domain (aa 1–184); assay: as above; details: both partners purified
# [4] = biological target: T5, HOIP extended PUB domain (aa 1–184); assay: fluorescence polarisation; competition assay: p97 PIM peptide competes with the OTULIN PIM for the HOIP PIM pocket; details: both partners purified
# [5] = biological target: HOIP PUB domain (aa 1–184) N85A (UniProt Q96EP0 1-184, N85A); assay: FP
# [6] = biological target: HOIP PUB domain (aa 1–184) Y82F (UniProt Q96EP0 1-184, Y82F); assay: FP
# [7] = biological target: T6, HOIP PUB domain (aa 1–184) N85A; assay: fluorescence polarisation; serially diluted PUB domains and HOIP variants mixed with an equal volume of 100 nM FITC-Ahx-labeled peptide; one-site binding model; triplicate; details: both partners purified
# PNGase PUB domain R55A = biological target: T7, PNGase PUB domain R55A; assay: as above; details: both partners purified
# [8] = biological target: T8, HOIP PUB domain (aa 1–184) V104A; assay: as above; details: both partners purified
# [9] = biological target: T9, HOIP PUB domain (aa 1–184) Y82F; assay: as above; details: both partners purified
Kd [1],binding result (HOIP PUB domain K99R),Kd [2],Kd (HOIP PUB domain N101R),Kd [3],Ki [4],Kd [5],Kd [6],binding result [7],Kd (PNGase PUB domain R55A),binding result [8],binding result [9],Binder
12 µM,binds,3 µM,0.9 µM,7.6 µM and 6 µM,,,,,,,,"{FITC-Ahx}-TEDNDDDLYG (peptide, UniProt P55072 797-806, looked up, p97 (VCP), C-terminal residues 797-806; also called p97 peptide; fluorescent p97 PIM peptide) [FITC-Ahx-labeled p97 PIM peptide (aa 797–806)]"
,,,,,37 µM,,,,,,,"TEDNDDDLYG (peptide, UniProt P55072 797-806, looked up, p97 (VCP) PIM peptide; also called p97 peptide) [unlabeled p97 PIM peptide]"
,binds,,0.1 µM,,,1.04 µM,9.38 µM,binds,43 µM,binds,binds,"{FITC-Ahx}-AEHEEDMYRAADEIEKEKE (peptide, UniProt Q96BN8 49-67, looked up, OTULIN, residues 49-67, holds the EEDMYR motif (residues 52-57); also called OTULIN peptide; wild-type OTULIN PIM peptide) [FITC-Ahx-labeled OTULIN PIM peptide (aa 49–67)]"
